In patent US20190381183A1 (TEXAS A AND M UNIVERSITY SYSTEM, published 2019):

How the values were obtained:
[1] = target: T1, recombinant human HER2 (extracellular domain)-Fc fusion protein (human, UniProt P04626 23-652); assay: SPR (BIAcore T200), antibody injected over immobilized HER2-ECD-Fc, pH 5.8, apparent KD (FIG. 4B); pH 5.8
T1 construct: extracellular domain; Bought reagent; also called HER2-ECD-Fc; HER-extracellular domain (ECD)-Fc fusion; not shown: immunoglobulin Fc fragment of the bought fusion protein

[2] = target: T1, recombinant human HER2 (extracellular …); assay: SPR, antibody injected over immobilized HER2-ECD-Fc, apparent equilibrium dissociation constant, pH 5.8
[3] = target: T1, recombinant human HER2 (extracellular …); assay: SPR, antibody injected over immobilized HER2-ECD-Fc, apparent equilibrium dissociation constant, pH 6.5
[4] = target: T1, recombinant human HER2 (extracellular …); assay: SPR, antibody injected over immobilized HER2-ECD-Fc, apparent equilibrium dissociation constant, pH 7.0
[5] = target: T1, recombinant human HER2 (extracellular …); assay: SPR, antibody injected over immobilized HER2-ECD-Fc, apparent equilibrium dissociation constant, pH 7.4

- Kd [1]: > 1500 nM
- Kd [2]: 1630 nM
- Kd [3]: 67.9 nM
- Kd [4]: 22.1 nM
- Kd [5]: 6.3 nM
B1: YS mutant of pertuzumab (Tyr55 to histidine in the light chain variable domain and Ser103 to histidine in the heavy chain variable domain) (antibody, human IgG1, V domains shown)
VH: QVQLQESGGGLVQPGGSLRLSCAASGFTFTDYTMDWVRQAPGKGLEWVADVNPNSGGSIYNQRFKGRFTLSVDRSKNTLYLQMNSLRAEDTAVYYCARNLGPHFYFDYWGQGTLVTVSS
VL: DIELTQSPSSLSASVGDRVTITCKASQDVSIGVAWYQQKPGKAPKLLIYSASYRHTGVPSRFSGSGSGTDFTLTISSLQPEDFATYYCQQYYIYPYTFGQGTKLEIKR
notes: Tested without conjugated drug in the SPR assay; also called YS variant of pertuzumab
